Results taken from patent US20050118148.

How the values were obtained:
Experiment in all cases: cell_activity
[1] = target: MafA (mouse L-Maf) (Mus musculus) (UniProt Q8CF90); details: HeLa; +/-2.8
MafB (Mus musculus) = MafB (Mus musculus) (UniProt P54841); details: HeLa; +/-10.4
c-Maf (Mus musculus) = c-Maf (Mus musculus) (UniProt P54843); details: HeLa; +/-12.1
Sequence of c-Maf (Mus musculus) (P54843 whole entry): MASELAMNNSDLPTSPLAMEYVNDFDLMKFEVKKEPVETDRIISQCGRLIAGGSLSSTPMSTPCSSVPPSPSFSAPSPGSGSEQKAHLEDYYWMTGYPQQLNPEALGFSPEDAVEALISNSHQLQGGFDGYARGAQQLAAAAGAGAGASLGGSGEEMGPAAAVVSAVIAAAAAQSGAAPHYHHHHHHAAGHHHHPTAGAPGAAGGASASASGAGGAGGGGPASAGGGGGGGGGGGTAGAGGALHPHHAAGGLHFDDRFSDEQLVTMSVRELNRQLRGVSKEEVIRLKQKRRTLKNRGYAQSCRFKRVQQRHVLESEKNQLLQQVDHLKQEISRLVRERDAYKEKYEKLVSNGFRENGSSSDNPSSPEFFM

Sequence of MafB (Mus musculus) (P54841 whole entry): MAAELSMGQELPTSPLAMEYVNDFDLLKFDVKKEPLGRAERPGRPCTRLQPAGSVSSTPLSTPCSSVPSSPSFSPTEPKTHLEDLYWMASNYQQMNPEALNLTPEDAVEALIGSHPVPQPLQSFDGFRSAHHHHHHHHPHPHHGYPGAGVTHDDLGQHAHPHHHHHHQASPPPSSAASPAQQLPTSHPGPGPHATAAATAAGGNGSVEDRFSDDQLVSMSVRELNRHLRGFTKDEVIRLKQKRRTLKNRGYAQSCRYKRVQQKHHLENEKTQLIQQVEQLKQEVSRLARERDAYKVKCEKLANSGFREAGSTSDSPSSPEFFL
Sequence of MafA (mouse L-Maf) (Mus musculus) (Q8CF90 whole entry): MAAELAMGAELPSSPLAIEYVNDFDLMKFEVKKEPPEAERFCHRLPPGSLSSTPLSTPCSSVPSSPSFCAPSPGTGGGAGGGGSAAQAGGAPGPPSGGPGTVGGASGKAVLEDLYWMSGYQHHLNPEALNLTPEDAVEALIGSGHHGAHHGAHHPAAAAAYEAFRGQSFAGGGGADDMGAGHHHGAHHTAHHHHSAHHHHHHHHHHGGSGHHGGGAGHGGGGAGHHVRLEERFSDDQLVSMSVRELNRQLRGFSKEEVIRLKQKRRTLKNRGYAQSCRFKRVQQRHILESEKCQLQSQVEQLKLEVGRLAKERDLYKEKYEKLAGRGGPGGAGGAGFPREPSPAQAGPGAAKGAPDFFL

Work on “rat insulin II promoter -238/+2 (-238 WT LUC)” yielded an activity (relative luciferase (printed as %)) [1] of 13.2, an activity (relative luciferase (printed as %)) (MafB (Mus musculus)) of 23.9 and an activity (relative luciferase (printed as %)) (c-Maf (Mus musculus)) of 28.
